Experimental findings from patent US20100285005A1 (Eli Lilly, published 2010) are described below.

Residue numbers refer to the chain shown, from its start.

B1: Antibody III (antibody, human IgG4 S228P, kappa, F234A L235A, V domains shown)
VH: EVQLVESGGGLVQPGGSLRLSCAASGFTSTDYYFSWVRQAPGKGLEWVGFIRYKSKGYTTEYSGSVKGRFTISRDDSKNSLYLQMNSLKTEDTAVYYCAREPITTDPRDYWGQGTLVTVSS
VL: DIVMTQSPDSLAVSLGERATINCKSSQSLFNSRTRKKYLAWYQQKPGQPPKLLIYWASKRKSGVPDRFSGSGSGTDFTLTISSLQAEDVAVYYCKQSRFLRAFGQGTKLEIKR
notes: Human engineered anti-CXCR4 antibody; also called the antibody III
B2: Antibody II (antibody, human IgG4 S228P, kappa, F234A L235A, V domains shown)
VH: B1 VH with Y53S
VL: B1 VL
B3: Antibody V (antibody, human IgG4 S228P, kappa, F234A L235A, V domains shown)
VH: B1 VH with Y53H
VL: B1 VL
B4: Antibody IV (antibody, human IgG4 S228P, kappa, F234A L235A, V domains shown)
VH: B1 VH with Y53N, S55R
VL: B1 VL
B5: Antibody I (antibody, human IgG4 S228P, kappa, F234A L235A, V domains shown)
VH: B1 VH with Y53T
VL: B1 VL

T1 sequence (P61073 whole entry): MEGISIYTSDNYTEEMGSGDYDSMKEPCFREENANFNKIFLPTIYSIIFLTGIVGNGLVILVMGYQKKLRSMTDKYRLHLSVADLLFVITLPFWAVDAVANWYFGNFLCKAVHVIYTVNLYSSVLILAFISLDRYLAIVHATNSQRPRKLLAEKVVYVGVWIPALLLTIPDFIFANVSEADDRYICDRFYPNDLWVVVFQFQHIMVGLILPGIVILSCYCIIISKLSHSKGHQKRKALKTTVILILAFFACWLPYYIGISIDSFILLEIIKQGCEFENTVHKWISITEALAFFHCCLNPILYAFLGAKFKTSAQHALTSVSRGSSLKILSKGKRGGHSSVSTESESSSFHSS

The first test concerns the target T1, human CXCR4, endogenous on human cells (CCRF-CEM leukemia cells; U937 histiocytic lymphoma cells) (human, UniProt P61073 1-352).
T1 construct: whole, on cells
The test is described as follows: inhibition of 125I-SDF-1α binding to CCRF-CEM cells expressing endogenous CXCR4 (SPA); antibody III's own average value. As for the experimental part: SDF-1 binding to CXCR4 is the first step in activating the CXCR4 intracellular signaling pathway. To determine if an antibody can block the interaction of SDF-1 and CXCR4, human leukemia CCRF-CEM cells expressing endogenous CXCR4 are used in an ¹²⁵I-labeled SDF-1α binding assay. The assay is performed in a 96-well U-bottom, non-treated polystyrene plate. The binding assay buffer is prepared with RPMI 1640 medium containing 10 mM N-2-hydroxyethylpiperazine-N′-2-ethanesulfonic acid (HEPES), pH 7.5, and 0.2% bovine serum albumin (BSA). Briefly, 200 μL reaction mixtures containing 300 pM ligand (60 pM ¹²⁵I-SDF-1α and 240 pM cold SDF-1α), different concentrations of the test antibody in assay buffer, 100,000 human CCRF-CEM cells, and 0.5 mg scintillation proximity assay (SPA) beads are incubated at room temperature for 2 hours. Plates are then counted in a liquid scintillation and luminescence counter in SPA mode. CXCR4 antagonists decrease the bound radioactivity in this assay in a dose-dependent manner. The inhibitory potency (IC₅₀) of a test antibody is calculated using GraphPad Prism software, based on the dose-dependent decrease of bound radioactivity.
For the molecule B1, the IC50 (commonly the concentration at which inhibition is half-maximal) worked out at 0.45 nM.

The target in the next test is T1, human CXCR4, endogenous on human cells …. The test can be described thus: cell-based or functional assay.
Consider B2, for which the “IC50, chemotaxis assay (SDF-1α-driven migration of U937 cells)” value (from here on “IC50, chemotaxis assay”) was no more than 30 nM.
Turning to B3, the “IC50, chemotaxis assay” value is no more than 30 nM.
Regarding B4, the “IC50, chemotaxis assay” value is no more than 30 nM.
For the molecule B5, the “IC50, chemotaxis assay” value is no more than 30 nM.

The target in another test is human CXCR4 receptor with a C-terminal linear C9 peptide tag (human). The test is described as follows: SPR (Biacore 2000), C9-tagged CXCR4 captured by 1D4 antibody, antibody injected, 4 °C.
Consider B1, for which the Kd (in general, a measure of binding affinity in units of concentration) stood at 1.54 nM; the koff (usually a measure of how fast the partners let go of each other) was found to be 0.00172 s⁻¹; the kon – broadly, a measure of how fast the partners come together – came out at 1.12e+06 M⁻¹ s⁻¹.
In turn, B2 gave a Kd of 0.72 nM, a koff of 0.00181 s⁻¹ and a kon of 2.5e+06 M⁻¹ s⁻¹.
In the case of B3, the Kd was 0.88 nM, the koff turned out to be 0.00168 s⁻¹ and the kon amounted to 1.91e+06 M⁻¹ s⁻¹.
Taken in the same sequence, the figures for B4 were 5.14 nM, 0.00398 s⁻¹ and 774000 M⁻¹ s⁻¹.
Turning to B5, the Kd was 0.68 nM, the off-rate constant (koff) was 0.00161 s⁻¹ and the kon came to 2.36e+06 M⁻¹ s⁻¹.
